{"source": "paper PMC6704107", "about": "(2019)", "binders": {"B1": {"name": "Adeno-associated virus 1 (AAV1) particle, wild-type capsid (complex)", "chain": "MAADGYLPDWLEDNLSEGIREWWDLKPGAPKPKANQQKQDDGRGLVLPGYKYLGPFNGLDKGEPVNAADAAALEHDKAYDQQLKAGDNPYLRYNHADAEFQERLQEDTSFGGNLGRAVFQAKKRVLEPLGLVEEGAKTAPGKKRPVEQSPQEPDSSSGIGKTGQQPAKKRLNFGQTGDSESVPDPQPLGEPPATPAAVGPTTMASGGGAPMADNNEGADGVGNASGNWHCDSTWLGDRVITTSTRTWALPTYNNHLYKQISSASTGASNDNHYFGYSTPWGYFDFNRFHCHFSPRDWQRLINNNWGFRPKRLNFKLFNIQVKEVTTNDGVTTIANNLTSTVQVFSDSEYQLPYVLGSAHQGCLPPFPADVFMIPQYGYLTLNNGSQAVGRSSFYCLEYFPSQMLRTGNNFTFSYTFEEVPFHSSYAHSQSLDRLMNPLIDQYLYYLNRTQNQSGSAQNKDLLFSRGSPAGMSVQPKNWLPGPCYRQQRVSKTKTDNNNSNFTWTGASKYNLNGRESIINPGTAMASHKDDEDKFFPMSGVMIFGKESAGASNTALDNVMITDEEEIKATNPVATERFGTVAVNFQSSSTDPATGDVHAMGALPGMVWQDRDVYLQGPIWAKIPHTDGHFHPSPLMGGFGLKNPPPQILIKNTPVPANPPAEFSATKFASFITQYSTGQVSVEIEWELQKENSKRWNPEVQYTSNYAKSANVDFTVDNNGLYTEPRPIGTRYLTRPL"}}, "key": {"AAVR PKD1-5 S425A": {"biological_target": "T1, AAVR PKD1-5 S425A (UniProt Q8IZA0-1 1-1049, S425A)", "T1 sequence": "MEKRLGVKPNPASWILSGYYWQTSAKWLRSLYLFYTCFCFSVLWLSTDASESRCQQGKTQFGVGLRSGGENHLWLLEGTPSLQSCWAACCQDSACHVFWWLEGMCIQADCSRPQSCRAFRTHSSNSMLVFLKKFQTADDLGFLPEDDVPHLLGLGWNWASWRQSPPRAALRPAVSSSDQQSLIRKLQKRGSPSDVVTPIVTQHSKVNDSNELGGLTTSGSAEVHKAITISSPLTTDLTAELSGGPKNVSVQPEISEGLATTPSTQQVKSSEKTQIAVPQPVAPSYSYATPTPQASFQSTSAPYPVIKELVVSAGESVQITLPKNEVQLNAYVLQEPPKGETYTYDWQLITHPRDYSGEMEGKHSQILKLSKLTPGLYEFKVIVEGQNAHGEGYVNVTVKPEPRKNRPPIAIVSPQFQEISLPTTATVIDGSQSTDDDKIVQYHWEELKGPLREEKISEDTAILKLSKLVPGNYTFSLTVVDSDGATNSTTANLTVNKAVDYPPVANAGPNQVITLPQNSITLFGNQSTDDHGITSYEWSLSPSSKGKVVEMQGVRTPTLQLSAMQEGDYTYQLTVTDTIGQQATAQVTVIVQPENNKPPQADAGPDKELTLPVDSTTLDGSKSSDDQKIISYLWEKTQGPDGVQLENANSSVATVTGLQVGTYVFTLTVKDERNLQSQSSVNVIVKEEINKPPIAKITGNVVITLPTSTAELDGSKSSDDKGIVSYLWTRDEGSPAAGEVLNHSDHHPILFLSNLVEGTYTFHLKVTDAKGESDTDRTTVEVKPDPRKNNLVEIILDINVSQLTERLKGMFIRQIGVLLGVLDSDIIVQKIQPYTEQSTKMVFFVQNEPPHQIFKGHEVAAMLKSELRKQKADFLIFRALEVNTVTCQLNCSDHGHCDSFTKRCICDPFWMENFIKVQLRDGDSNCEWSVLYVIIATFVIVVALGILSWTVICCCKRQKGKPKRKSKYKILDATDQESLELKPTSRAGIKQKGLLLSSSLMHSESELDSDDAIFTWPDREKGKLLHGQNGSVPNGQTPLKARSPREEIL", "assay": "SPR"}, "AAVR PKD1-5 D435A": {"biological_target": "T2, AAVR PKD1-5 D435A (UniProt Q8IZA0-1 1-1049, D435A)", "T2 sequence": "T1 sequence with A425S, D435A", "assay": "SPR"}}, "note": "Residue numbers refer to the chain shown, from its start.", "data": [{"binder": "B1", "values": [{"measurement": "Kd", "setting": "AAVR PKD1-5 S425A", "value": 3.88, "unit": "µM"}, {"measurement": "Kd", "setting": "AAVR PKD1-5 D435A", "value": 13.6, "unit": "µM"}]}]}
